Assay results published in a protein production outcome set (Wang et al. 2014).

Experiment: label from the status in PepcDB records

Sequence	protein production
MMQKPITEIIIVGGGTAGWITAGLLAAEHNVDKGVLAHSPKLNITLIESPDVATIGVGEGTWPSMRSTLSKIGIDENDFIRQCDASFKQGSRFINWCKDPQSNVADSYLHPFSLPHGHQELDLCPYWLPHAEQVSFAEAVCSQQVLTQLGLAPKSIVTAQYHFQNNYGYHLNAAKFSQLLTEHCTQKLGVTHIRDHVSQIINNQHGDIEKLITKQNGEISGQLFIDCTGAKSLLLGEHLQVPFLSQKSVLFNDRALAIQVPYSDANSPIASCTHSTAQPNGWIWDIGLPTRKGVGYVYSSSHTNDIDAQKTLFNYLGVDGAAADKLEPRQLAINPGYRAKCWQNNCIAIGMAAGFIEPLEASALALIEWTASTLAQQLPPNRMVMDTISARVNERYQQHWQQIIDFLKLHYVISQRQEDRYWRDHRESNSIPDSLQAMLELWRYQTPSQQDISYKEALFPAASFQYVLYGMSFNTQLPTHVKPSMQQLAQRLFNDNQQRTQALSKNLPTNRELLDKVAQYGFPKL	not failed
MLSKPMELLRPSKGMINVHPIQRGGILTEEARKVLLEWGDGYSMCDICLEGRVDLLDKPPVKRFKEEVAEFLGMDEVRFTAGARHAKFVAMSGFKGALVVDSLAHYTTYIAAELNGLRVYEVPNTGYPEFRIEAESYTDVFEKVKEETGDYPAVALLTHADYKYGNLADAKKVAEICRDYGIPLILNTAYTSGIMEVSGRETGCDFIVASGHKSWAATAPIGILATTFEFAERVFRVSEVRGNWSGRAFTKKEVALFGCSPVYGLPLVTLMASFPVVKERVKRWKEEVEKARWFVEEMEKIEGVMLLGERPKNHTLMNFETPSFNLIAKKHRRKGYFLYHELKERGIFGVQPGMTRNVKLNVYGLSWEEVERVAEAFKEIAEKYGLEVED	failed
MGHHHHHHSHMYRYFTPKIVKRALNIWPPFWGAGISIENISSDFQEVSVILKDRFWNRNANRTQYGGSIFSMTDPVFSLMLMGILRDEYYVWDKQSEIDFISPGTTDLHARFVISDEQLAEIKQETKEGEKHFPQFEVYIYDKKGKVVARVNRTLYVRKKPEFR	not failed
MKVFEFEVGKGFLLRLDYGKDLVRQIEEFLEEKGIHAAHISAIGAVRSAVIGYYDQEKKEYVKKELMEPLEILSLSGNVSMKDSKPFCHIHVLLGKDGEVYGGHLFSAEVFACEVFVLPLSGEAPERAFDEQTGLFLWLEHHHHHH	not failed
MKHYFSCLKGDTIKAIFLVCLAVGVVGMSYGSLAMAYGFPLWVPFVLSIFVLAGASEFMFIGIVASGGNPLAAAAAGLLVNARHVPFGVTVRDLVGTRAASFFGCHIMNDESVVFGLSQKTPEQRKAAYWLCGLGVALFWPIGTLIGAGVGKLLPAPETIGLDAVFPAILLALVIPAFKNRTTLIRGCSGAALSLAAVPFVAAGLPVLLSLLGLLARKK	failed
MSRAEKSTAEQSGHIQHGVRKAAGVVFMVFGTMCFASKSIFVKWAYEQGAQPEAVLLYRQLFAAPLFWLIFIVYRSKLPAKPEKAEIFKACAAGLLCFFLSPLLDFIGLHGVSATVERMIVMSYPMFVLIITAFVNKKMVSGKTFAAILLVNAGLFLAVGGWDVQALEANLSGAFLILLSAVAYAAYLVVAGGLVRQIGGIRMNAYGMSAASLAMAGYALLRSLREQPGIVLSYPPAMYGFFMIIAAVTTVIPFLFMLEGMKRIGAERGAVISMIGPVLTIFGGVLFLNERLTPVQWLGCLLVHLTVSLLEYRK	failed
MSLKISLENVGCASQIGKRKENEDRFDFAQLTDEVLYFAVYDGHGGPAAADFCHTHMEKCIMDLLPKEKNLETLLTLAFLEIDKAFSSHARLSADATLLTSGTTATVALLRDGIELVVASVGDSRAILCRKGKPMKLTIDHTPERKDEKERIKKCGGFVAWNSLGQPHVNGRLAMTRSIGDLDLKTSGVIAEPETKRIKLHHADDSFLVLTTDGINFMVNSQEICDFVNQCHDPNEAAHAVTEQAIQYGTEDNSTAVVVPFGAWGKEGHHHHHH	not failed
MKKGVLIAFEGIDGSGKSSQATLLKDWIELKRDVYLTEWNSSDWIHDIIKEAKKKDLLTPLTFSLIHATDFSDRYERYILPMLKSGFIVISDRYIYTAYARDSVRGVDIDWVKKLYSFAIKPDITFYIRVSPDIALERIKKSKRKIKPQEAGADIFPGLSPEEGFLKYQGLITEVYDKLVKDENFIVIDGTKTPKEIQIQIRKFVGELIDNSF	not failed
